B1: CPEB3 Ribozyme (parent)
chain: UAACAGGGGGCCACAGCAGAAGCGUUCACGUCGCAGCCCCUGUCAGAUUCUGGUGAAUCUGCGAAUUCUGCUGUAUAUCUC

Variants of: B1
Experiment: self-cleavage, relative activity (ratio to wild type); higher = more cleavage; in vitro, sequencing
Outline: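 After error-prone PCR and barcoding, CPEB3 ribozyme mutant libraries were transcribed with T7 RNA polymerase at 37°C for 5 hours, then given 15 min with DNase I before an EDTA stop, and they cleaved during both steps. Reverse transcription with template switching preceded Illumina sequencing. Relative activity divides a variant's cleaved/total read fraction by the unmutated ribozyme's. At least 5 reads were required per variant, and three batches were averaged.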

Row | Variant | self-cleavage
1 | G70A U74C | 0.69
2 | G70A U74A | 0.73
3 | G70A U76C | 0.75
4 | G70A U76A | 0.8
5 | U74G A75G | 1.26
6 | U74G A75U | 1.29
7 | A75G U76C | 0.94
8 | A75G U76G | 0.43
9 | A75G U76A | 1.05
10 | A77G U78A | 1.17
11 | A77G U78C | 0.82
12 | A77G U78G | 0.9
13 | C71G | 0.42
14 | C71A | 0.33
15 | C71U | 0.68
16 | U76C C79G | 1.22
17 | U74A U80C | 1.24
18 | U74A U80A | 1.26
19 | U74G U76C | 1.16
20 | A77U C79A | 1.26
21 | U72C G73A | 1.25
22 | U72C G73U | 1.48
23 | G70U U80A | 0.67
24 | A77U C81A | 1.31
25 | U76A | 1.14
26 | U76C | 1.1

Row | Variant | self-cleavage
27 | U76G | 0.9
28 | C71U U78C | 0.77
29 | C71U U78A | 0.65
30 | A77G U80A | 1.18
31 | A77G U80C | 1.12
32 | A77G U80G | 1.21
33 | G70C U80C | 0.22
34 | U69G U72C | 0.44
35 | U69G U72A | 0.35
36 | U72G A75G | 1.2
37 | C71A U80A | 0.37
38 | C71A U80C | 0.63
39 | U76A A77G | 1.01
40 | U76A A77U | 1.01
41 | U72C C81U | 1.23
42 | U72C C81A | 1.05
43 | A75G C79U | 1.18
44 | A75U A77G | 1.18
45 | A75U A77U | 1.2
46 | G70C U72C | 0.31
47 | G70U U78A | 0.48
48 | U69G C71A | 0.09
49 | U78A C81U | 0.8
50 | U76C C81A | 1.24
51 | U74A A77G | 1.26
52 | G73C U78G | 1.23

Row | Variant | self-cleavage
53 | A77C U80A | 1.05
54 | U76A U80C | 1.23
55 | U76A U80A | 1.17
56 | U69C C81U | 0.5
57 | U69C C81A | 1.16
58 | U69C C81G | 0.89
59 | A75C U76G | 1.25
60 | U74A A75C | 1.44
61 | U74A A75U | 1.29
62 | U74A A75G | 1.31
63 | U78A | 1.12
64 | U78C | 1.02
65 | U78G | 1.1
66 | U72A U74A | 1.34
67 | U72A U74C | 1.16
68 | G73U C79U | 1.32
69 | G70A C71U | 0.41
70 | G70A C71G | 0.23
71 | U80A C81U | 1.24
72 | G70A U72C | 0.42
73 | G70A U72A | 0.33
74 | G70C U76A | 0.11
75 | U69C C79G | 0.72
76 | U69C C79U | 0.74
77 | G73A U80C | 1.36
78 | G73A U80A | 1.25

Source: the RNAGym collection of RNA variant scans (doi:10.1093/nar/gkz1192)
